# According to US20260083855A1 (Hoffmann-La Roche, published 2026):
# T1: human LAG-3 on activated CD4 T cells (human, UniProt P18627 23-525)
# T1 sequence (looked up): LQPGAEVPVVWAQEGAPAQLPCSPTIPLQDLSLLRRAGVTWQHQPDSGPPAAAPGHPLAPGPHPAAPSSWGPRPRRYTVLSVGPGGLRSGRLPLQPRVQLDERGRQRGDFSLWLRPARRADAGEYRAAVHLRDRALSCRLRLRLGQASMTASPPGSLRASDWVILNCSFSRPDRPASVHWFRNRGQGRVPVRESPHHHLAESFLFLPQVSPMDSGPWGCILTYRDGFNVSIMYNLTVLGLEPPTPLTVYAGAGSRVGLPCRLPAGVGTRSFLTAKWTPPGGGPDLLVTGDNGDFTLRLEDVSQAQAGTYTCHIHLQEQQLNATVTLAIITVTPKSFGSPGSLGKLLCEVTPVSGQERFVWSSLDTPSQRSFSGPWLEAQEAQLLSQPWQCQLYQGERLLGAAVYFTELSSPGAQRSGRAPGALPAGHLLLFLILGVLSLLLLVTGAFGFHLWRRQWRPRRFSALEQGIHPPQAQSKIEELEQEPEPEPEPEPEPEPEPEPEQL
# T2: IL-2R on human cells (activated CD4 T cells, PBMC subsets, NK92) (human, UniProt P14784 27-551; P31785 23-369)
# T2 sequence (looked up) 1: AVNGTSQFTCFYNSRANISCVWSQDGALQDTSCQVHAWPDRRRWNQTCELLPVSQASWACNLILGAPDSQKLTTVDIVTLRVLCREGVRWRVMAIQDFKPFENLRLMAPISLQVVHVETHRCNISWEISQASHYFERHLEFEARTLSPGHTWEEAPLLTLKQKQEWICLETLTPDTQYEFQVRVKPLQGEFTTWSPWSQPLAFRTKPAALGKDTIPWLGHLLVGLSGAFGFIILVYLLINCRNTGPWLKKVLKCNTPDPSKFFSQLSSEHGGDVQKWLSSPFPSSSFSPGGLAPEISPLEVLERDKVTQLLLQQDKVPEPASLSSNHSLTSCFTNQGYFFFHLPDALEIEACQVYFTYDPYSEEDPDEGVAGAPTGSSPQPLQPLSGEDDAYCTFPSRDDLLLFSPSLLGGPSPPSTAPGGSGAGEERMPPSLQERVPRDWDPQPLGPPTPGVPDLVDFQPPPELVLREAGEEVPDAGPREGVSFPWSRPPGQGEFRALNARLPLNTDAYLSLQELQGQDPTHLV
# T2 sequence (looked up) 2: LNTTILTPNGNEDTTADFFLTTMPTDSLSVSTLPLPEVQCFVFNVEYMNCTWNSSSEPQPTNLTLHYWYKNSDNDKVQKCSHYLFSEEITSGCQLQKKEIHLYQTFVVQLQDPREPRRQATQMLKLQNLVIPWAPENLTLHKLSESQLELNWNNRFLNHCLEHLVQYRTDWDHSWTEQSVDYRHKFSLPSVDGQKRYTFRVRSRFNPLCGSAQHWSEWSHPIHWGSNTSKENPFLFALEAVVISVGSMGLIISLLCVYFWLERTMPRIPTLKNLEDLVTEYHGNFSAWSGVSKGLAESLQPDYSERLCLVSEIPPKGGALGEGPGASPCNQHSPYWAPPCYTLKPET
# How the values were obtained:
# Experiment in all cases: cell-based or functional assay
# [1] = target: T1, human LAG-3 on activated CD4 T cells
# [2] = target: T3, human PD-1 on activated CD4 T cells (human, UniProt Q15116 25-288)
# T3 sequence (Q15116 25-288 limits assumed): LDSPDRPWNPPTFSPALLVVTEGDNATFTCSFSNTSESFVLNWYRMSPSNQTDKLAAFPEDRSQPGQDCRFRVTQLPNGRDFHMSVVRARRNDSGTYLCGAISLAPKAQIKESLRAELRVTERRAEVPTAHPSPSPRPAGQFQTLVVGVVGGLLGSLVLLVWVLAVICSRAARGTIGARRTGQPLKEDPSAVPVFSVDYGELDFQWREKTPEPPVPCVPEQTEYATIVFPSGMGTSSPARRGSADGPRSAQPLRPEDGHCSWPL
# [3] = target: T1, human LAG-3 on activated CD4 T cells; remark: listed apart in the source
# [4] = target: T2, IL-2R on human cells (activated CD4 T …)
# [5] = target: T3, human PD-1 on activated CD4 T cells; remark: listed apart in the source
# [6] = target: T2, IL-2R on human cells (activated CD4 T …); remark: listed apart in the source
# [7] = target: T3, human PD-1 on activated CD4 T cells; remark: listed apart in the source
Binder,"STAT5-P potency on PD-1+, LAG-3+ T cells against PD1-IL2v [1]","STAT5-P potency on PD-1+, LAG-3+ T cells against PD1-IL2v [2]","Cis-delivery: fold increase in EC50, EC50 [PD1/LAG-3 bl.]/EC50 [PD1+/LAG-3+] [3]",Potency reduction vs PD1-IL2v on PD-1+ LAG-3+ T cells [4],"Cis-delivery: fold increase in EC50, EC50 [PD1/LAG-3 bl.]/EC50 [PD1+/LAG-3+] [5]","Percentage of internalization (0.6 nM, activated CD4 T cells, 3 h at 37 C) [6]","Percentage of internalization (0.6 nM, activated CD4 T cells, 3 h at 37 C) [7]"
"PD1-LAG3-IL2v (P1AF4801) (bispecific antibody, human IgG1, kappa, L234A L235A) light 1: EVQLLESGGGLVQPGGSLRLSCAASGFSFSSYTMSWVRQAPGKGLEWVATISGGGRDIYYPDSVKGRFTISRDNSKNTLYLQMNSLRAEDTAVYYCVLLTGRVYFALDSWGQGTLVTVSSASVAAPSVFIFPPSDEQLKSGTASVVCLLNNFYPREAKVQWKVDNALQSGNSQESVTEQDSKDSTYSLSSTLTLSKADYEKHKVYACEVTHQGLSSPVTKSFNRGEC light 2: not shown heavy 1: EVQLLESGGGLVQPGGSLRLSCAASGFIFDDYTMNWVRQAPGKGLEWVAVISWDGGGTYYTDSVKGRFTISRDDFKNTLYLQMNSLRAEDTAVYYCAKGLTDTTLYGSDYWGQGTLVTVSSASTKGPSVFPLAPSSKSTSGGTAALGCLVEDYFPEPVTVSWNSGALTSGVHTFPAVLQSSGLYSLSSVVTVPSSSLGTQTYICNVNHKPSNTKVDEKVEPKSCDKTHTCPPCPAPEAAGGPSVFLFPPKPKDTLMISRTPEVTCVVVDVSHEDPEVKFNWYVDGVEVHNAKTKPREEQYNSTYRVVSVLTVLHQDWLNGKEYKCKVSNKALGAPIEKTISKAKGQPREPQVCTLPPSRDELTKNQVSLSCAVKGFYPSDIAVEWESNGQPENNYKTTPPVLDSDGSFFLVSKLTVDKSRWQQGNVFSCSVMHEALHNHYTQKSLSLSPGK heavy 2: not shown",127 fold,127 fold,1110 fold,0.00787 fold,1110 fold,25.7%,–
"PD1-LAG3-IL2v Q126T (P1AF7951) (bispecific antibody, human IgG1, kappa, L234A L235A) light 1: EVQLLESGGGLVQPGGSLRLSCAASGFSFSSYTMSWVRQAPGKGLEWVATISGGGRDIYYPDSVKGRFTISRDNSKNTLYLQMNSLRAEDTAVYYCVLLTGRVYFALDSWGQGTLVTVSSASVAAPSVFIFPPSDEQLKSGTASVVCLLNNFYPREAKVQWKVDNALQSGNSQESVTEQDSKDSTYSLSSTLTLSKADYEKHKVYACEVTHQGLSSPVTKSFNRGEC light 2: not shown heavy 1: EVQLLESGGGLVQPGGSLRLSCAASGFIFDDYTMNWVRQAPGKGLEWVAVISWDGGGTYYTDSVKGRFTISRDDFKNTLYLQMNSLRAEDTAVYYCAKGLTDTTLYGSDYWGQGTLVTVSSASTKGPSVFPLAPSSKSTSGGTAALGCLVEDYFPEPVTVSWNSGALTSGVHTFPAVLQSSGLYSLSSVVTVPSSSLGTQTYICNVNHKPSNTKVDEKVEPKSCDKTHTCPPCPAPEAAGGPSVFLFPPKPKDTLMISRTPEVTCVVVDVSHEDPEVKFNWYVDGVEVHNAKTKPREEQYNSTYRVVSVLTVLHQDWLNGKEYKCKVSNKALGAPIEKTISKAKGQPREPQVCTLPPSRDELTKNQVSLSCAVKGFYPSDIAVEWESNGQPENNYKTTPPVLDSDGSFFLVSKLTVDKSRWQQGNVFSCSVMHEALHNHYTQKSLSLSPGK heavy 2: not shown",6.5 fold,6.5 fold,485 fold,0.154 fold,485 fold,28.1%,–
"anti-PD1 IgG PG LALA (P1AA6888) (antibody, V domains shown) VH: EVQLLESGGGLVQPGGSLRLSCAASGFSFSSYTMSWVRQAPGKGLEWVATISGGGRDIYYPDSVKGRFTISRDNSKNTLYLQMNSLRAEDTAVYYCVLLTGRVYFALDSWGQGTLVTVSS VL: DIVMTQSPDSLAVSLGERATINCKASESVDTSDNSFIHWYQQKPGQSPKLLIYRSSTLESGVPDRFSGSGSGTDFTLTISSLQAEDVAVYYCQQNYDVPWTFGQGTKVEIKR",–,–,–,–,–,–,13.6%
